Changes are numbered by the printed parent chain. In names and notes the source's numbering stands. Like-named read-outs stand apart in the source and are kept apart here.
Legend:
[1] = molecular target: T1, HLA-DR on BJAB cells (human (endogenous in BJAB), UniProt P01903 26-254; P01911 30-266); assay: FACS
[2] = molecular target: T1, HLA-DR on BJAB cells; assay: FACS; remark: listed apart in the source
[3] = molecular target: T2, recombinant HLA-DR (uncleaved) (human, UniProt P01903 28-206; P01911 30-219); assay: BLI; apparent
[4] = molecular target: T2, recombinant HLA-DR (uncleaved); assay: BLI; apparent; remark: listed apart in the source
[5] = molecular target: T1, HLA-DR on BJAB cells; assay: FACS; remark: listed apart in the source
[6] = molecular target: T2, recombinant HLA-DR (uncleaved); assay: BLI; apparent; remark: listed apart in the source

B1: parental 44H10 IgG (antibody, V domains shown)
VH: QVQLKESGPGLVAPSQSLSITCTVSGFSLTSYGVHWVRQPPGKGLEWLGVIWAGGSINYNSALMSRLSISKDNFKSQVFLKMSSLQTDDTAMYYCARAYGDYVHYAMDYWGQGTSVTASS
VL: DIQMTQSPSSLSASLGQRVSLTCRASQEISGYLTWLQQKPDGTIKRLVYAASTLDSGVPKRFSGSRSGSDYSLTISSLESEDFADYYCLQYTNYPLTFGAGTKLELK
B1 was tested. Which EC50 [1] did it give?
Its EC50 is 1 nM.

And the EC50 [2]?
Its EC50 is 0.8 nM.

What about the Kd [3] of the same binder?
Its Kd is 2.2 nM.

B2: humanized 44H10 version 17 IgG (antibody, V domains shown)
VH: QVTLKESGPVLVKPTETLTLTCTVSGFSLTSYGVHWIRQPPGKALEWLAVIWAGGSISYSTSLMSRLTISKDTSKSQVVLTMTNMDPVDTATYYCARAYGDYVHYAMDYWGQGTLVTVSS
VL: DIQMTQSPSSLSASVGDRVTITCRASQEISGYLTWLQQKPGKAPKLLIYAASTLDSGVPSRFSGSGSGTDFTLTISSLQPEDFATYYCLQYTNYPLTFGQGTKLEIK
B2 was tested. Which EC50 [2] did it give?
Its EC50 is 43 nM.

B3: humanized 44H10 version 22 IgG (antibody, V domains shown)
VH: QVQLQESGPGLVKPSETLSLTCTVSGFSLTSYGVHWIRQPPGKGLEWIGVIWAGGSINYNSALMSRVTISKDTSKNQVSLKLSSVTAADTAVYYCARAYGDYVHYAMDYWGQGTLVTVSS
VL: B2 VL with S60K, G66R
With B3 as the binder, how does the EC50 [1] read?
The EC50 was 1.7 nM.

And the Kd [4]?
Its Kd is 29 nM.

B4: humanized 44H10 version 21 IgG (V17 with light chain S60K and G66R back-mutations) (antibody, V domains shown)
VH: B2 VH
VL: B2 VL with S60K, G66R
Which EC50 [5] does the source give for B4 here?
Its EC50 is 14 nM.

And the Kd [6]?
Its Kd is 95 nM.

Reference: paper PMC11270187 (2024)
